According to publication PMC8769549, “The intrinsically disordered SARS-CoV-2 nucleoprotein in dynamic complex with its viral partner nsp3a”:

Biological target: N234 (nucleoprotein domains N2-N3-N4) (SARS-CoV-2 (NC_045512.2), UniProt P0DTC9 47-364)
Test: NMR; 1D NMR; 100 uM RNA, 50 uM N234
Conditions: protein: recombinant; tags: N-terminal His6-TEV, cleaved; chain copies: 2; single strand

AAAAAA (ssRNA) [polyA hexameric RNA]
binding result: binds
